This is an account of results in patent publication US20180072772A1 (CALIFORNIA INSTITUTE OF TECHNOLOGY, published 2018).

Primed or numbered codes have the meaning given here. Where no end group is shown, it is not given here. [ ]: non-standard residue; d: D form. The star is where a group is joined. Biotin = O=C1N[C@H]2[C@H](CS[C@H]2CCCCC(=O)*)N1; Lys(N3) = [N-]=[N+]=NCCCC[C@H](N)C(=O)O; dPra = C#CC[C@@H](N)C(=O)O; PEG5″ = not defined here; PEG5′ = PEG5 linker

A word on the EC50: it is the concentration that produces a half-maximal response. A low value points to an effect from little substance. Broadly, the Kd is a measure of binding affinity in units of concentration. A low value points to a tighter complex. In general, EC50 (read off the curve) refers to the concentration at which the effect is half-maximal.

Assay [1] addresses E17K GST-PH Domain (Homo sapiens (Human)) (UniProt P31749). As to the kind of experiment: ELISA, biotinylated ligand on streptavidin plate, GST-PH Domain titrated, anti-GST detection. In general terms: ELISA stands for enzyme-linked immunosorbent assay.
The target of assay [2] is 6His-PEG5-Mut 33mer Fragment (E17K 33-mer epitope without alkyne click handle). As to the kind of experiment: fluorescence polarization, in solution.
Assay [3] deals with 6His-PEG5-WT 33mer Fragment (wildtype 33-mer epitope without alkyne click handle). The assay can be described thus: fluorescence polarization, in solution.
Assay [4] concerns the target full length Akt1E17K (Homo sapiens (Human)) (UniProt P31749). As to the kind of experiment: fluorescence polarization, in solution. For orientation: In fluorescence polarisation assays a small probe gives low polarisation when free and higher when bound to something large.
Assay [5] has the same target. As to the kind of experiment: fluorescence polarization KD values compared.
The target in assay [6] is T1, GFP-tagged E17K PH Domain protein (Homo sapiens (Human), UniProt P31749 1-124).
T1 construct: Cloned from pUNO-hAKT1 and mutated; also called GFP-E17K PHD; E17K mutant GFP-PH domain; not shown: GFP of the TOPO C-terminal GFP mammalian vector
T1 chain: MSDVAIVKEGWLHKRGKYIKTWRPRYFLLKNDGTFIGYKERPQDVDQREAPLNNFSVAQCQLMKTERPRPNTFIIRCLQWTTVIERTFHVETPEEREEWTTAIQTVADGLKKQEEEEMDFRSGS
As to the kind of experiment: confocal imaging of HEK-293T cells expressing GFP-PH Domain.

Assay [7] concerns the target full length Akt1E17K (Homo sapiens (Human)) (UniProt P31749). As to the kind of experiment: fluorescence polarization in solution, full-length Akt1 titrated.
Assay [8] has as its target E17K GST-PH Domain (Homo sapiens (Human)) (UniProt P31749). As to the kind of experiment: ELISA: biotinylated triligand candidate on streptavidin plate, GST-PH Domain titrated, anti-GST-HRP detection.

Sequence of 6His-PEG5-WT 33mer Fragment (wildtype 33-mer epitope without alkyne click handle) (peptide, as listed by the source): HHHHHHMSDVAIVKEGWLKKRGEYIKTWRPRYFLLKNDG
Sequence of 6His-PEG5-Mut 33mer Fragment (E17K 33-mer epitope without alkyne click handle) (peptide, as listed by the source E17K E17K): as the sequence (peptide, as listed by the source) above, with E23K counted along it

B1: Biotin-PEG5-ivdae(SEQ ID NO: 78)-yleaf(SEQ ID NO: 43)-yksy(SEQ ID NO: 76) triligand (peptide)
peptide 1: [dI][dV][dD][dA][dE]
peptide 2: [Lys(N3)][dY][dL][dE][dA][dF][dPra]
peptide 3: [dY][dK][dS][dY]
modifications: not fully specified (N-terminus, C-terminus); also: triazole to a chain's N/C-terminus, triazole to a chain's N/C-terminus
In the case of B1, the EC50 in assay [1] was 45 nM.
Consider {Biotin-PEG5′}-[dY][dL][dE][dA][dF] (not fully specified (C-terminus)) [Biotin-PEG5-yleaf(SEQ ID NO: 43)-Pra anchor ligand], for which the EC50 in assay [1] was 61 nM.
Consider [dY][dL][dE][dA][dF] (also: fluorescence polarization label not described) [yleaf (SEQ ID NO: 43) anchor ligand 4], for which the Kd was 328 nM in assay [2], 2800 nM in assay [3] and 54 nM in assay [4]. The molecule further came in with a selectivity for E17K relative to WT (fold (E17K:WT)) in assay [5] of 10.

B2: PEG5-TAT-Cy5 (peptide)
peptide: [PEG5″]YGRKKRRQRR-Cy5
notes: Control without the yleaf anchor; also called blank of PEG5-TAT-Cy5; control with no anchor ligand peptide
For B2, the binding result in assay [6] is given as “no binding (tested: 50 nM)”.

B3: yleaf(SEQ ID NO: 43)-Tz-yksy(SEQ ID NO: 76) biligand, N-terminal PEG5-biotin (peptide)
peptide 1: [dY][dL][dE][dA][dF]
peptide 2: [dY][dK][dS][dY]
modifications: not fully specified (N-terminus, C-terminus, bridges); also: triazole to a chain's N/C-terminus
In turn, B3 showed an EC50 in assay [1] of 19 nM.

B4: triligand 9 (ivdae-yleaf-yksy, form used in fluorescence polarization) (peptide)
peptide 1: [dI][dV][dD][dA][dE]
peptide 2: [dY][dL][dE][dA][dF]
peptide 3: [dY][dK][dS][dY]
modifications: not fully specified (N-terminus, C-terminus); also: fluorescence polarization label, not described, triazole to a chain's N/C-terminus, triazole to a chain's N/C-terminus
B4 gave an EC50 (read off the curve) in assay [7] of 100 nM.

B5: triligand candidate iryrn (iryrn-yleaf-yksy) (peptide)
peptide 1: [dI][dR][dY][dR][dN]
peptide 2: [Lys(N3)][dY][dL][dE][dA][dF][dPra]
peptide 3: [dY][dK][dS][dY]
modifications: not fully specified (N-terminus, C-terminus); also: triazole to a chain's N/C-terminus, triazole to a chain's N/C-terminus
In assay [8], B5 gave an EC50 (read off the curve) of 10 nM.
